Reference: IntAct's records for PubMed 17717528

B1: Circadian clock oscillator protein KaiC (Thermosynechococcus elongatus (strain BP-1)), Q79V60 (parent)
chain: MTNLPEHQSSPTEQSSAEVKKIPTMIEGFDDISHGGLPQGRTTLVSGTSGTGKTLFAVQFLYNGITIFNEPGIFVTFEESPQDIIKNALSFGWNLQSLIDQGKLFILDASPDPDGQEVAGDFDLSALIERIQYAIRKYKATRVSIDSVTAVFQQYDAASVVRREIFRLAFRLKQLGVTTIMTTERVDEYGPVARFGVEEFVSDNVVILRNVLEGERRRRTVEILKLRGTTHMKGEYPFTINNGINIFPLGAMRLTQRSSNVRVSSGVKTLDEMCGGGFFKDSIILATGATGTGKTLLVSKFLETGCQQGERALLFAYEESRAQLSRNASSWGIDFEELERRGLLRIICAYPESAGLEDHLQIIKSEIADFKPSRVAIDSLSALARGVSNNAFRQFVIGVTGFAKQEEITGFFTNTTDQFMGSNSITESHISTITDTILLLQYVEIRGEMSRAINVFKMRGSWHDKGIREYVITEKGAEIRDSFRNFEGIISGTPTRISVDEKTELARIAKGMQDLESE
partner: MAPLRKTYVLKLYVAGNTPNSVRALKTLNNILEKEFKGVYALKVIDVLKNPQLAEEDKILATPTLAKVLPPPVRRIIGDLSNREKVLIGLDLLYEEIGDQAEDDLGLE
B2: Circadian clock oscillator protein KaiC (Thermosynechococcus elongatus (strain BP-1)), Q79V60 (parent)
chain: B1 chain
partner: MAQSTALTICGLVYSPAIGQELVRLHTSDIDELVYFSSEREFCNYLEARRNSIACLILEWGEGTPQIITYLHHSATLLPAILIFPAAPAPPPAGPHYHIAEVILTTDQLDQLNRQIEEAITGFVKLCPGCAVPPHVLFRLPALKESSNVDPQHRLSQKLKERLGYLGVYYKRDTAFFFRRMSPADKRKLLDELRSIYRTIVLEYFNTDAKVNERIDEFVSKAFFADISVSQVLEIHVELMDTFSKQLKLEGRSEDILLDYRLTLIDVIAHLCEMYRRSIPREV

Variants of: B1
Settings: with kaib_thevb kaiB

| Variant | effect of a mutation on the interaction |
| --- | --- |
| T432A | disrupting interaction |

Variants of: B2
Settings: with kaia_thevb kaiA

| Variant | effect of a mutation on the interaction |
| --- | --- |
| T432A | decreasing interaction |
